Laboratory results taken from patent US20210395381A1 (OSSIANIX, published 2021).

B1: Clone 7 (VNAR)
VNAR: ARVDQTPQTITKETGESLTINCVLRDNNCALSSTLWYRTKSGSRNEESISKGGRYVETVNSGSKSFSLRINDLTVEDSGTYRCNVQSWPPGNGWWCDVYGDGTAVTVNA
notes: VNAR on phage
B2: Clone 4 (VNAR)
VNAR: ARVDQTPQTITKETGESLTINCVLRDSNCALPSTYWYRKKSGSTNEESISKGGRYVETVNSGSKSFSLRINDLTVKDSGTYRCKVMSQEVRWQMTCKIVVMDVYGGGTVVTVNA
notes: VNAR on phage
B3: Clone 30 (VNAR)
VNAR: ARVDQTPQTITKETGESLTINCVLRDSNCALSSTLWYRTKSGSRNEESISKGGRYVETVNSGSKSFSLKINDLTVEDSGTYRCNVWFADYYWFQYDVYGGGTAVTVNA
notes: VNAR on phage
B4: Clone 31 (VNAR)
VNAR: ARVDQTPQTITKETGESLTINCVLRDSNCALSSTYWYRKKSDSTNEENISKGGRYVETVNSGSKSFSLKINDLTVEDSGTYRCNVQPLFCDLWLDVYGGGTVVTVNA
notes: VNAR on phage
B5: Clone 9 (VNAR)
VNAR: ARVDQTPQTITKETGESLTINCVLRDSNCALPSTWYRKKSDSTNEESISKGGRYVETVNSGSKSFSLRINDLTVKDSGTYRCKVLYPNCYRCMWGQVTDVYGGGTAVTVNA
notes: VNAR on phage
B6: Clone 5 (VNAR)
VNAR: ARVDQTPQTITKETGESLTINCVLRDSNCALSSTLWYRTKSGSRNEESISKGGRYVETVNSGSKSFSLRINDLTVKDSGTYRCNVQQYDCIASFDVYGDGTAVTVNA
notes: VNAR on phage
B7: Clone 6 (VNAR)
VNAR: ARVDQTPQTVTKETGESLTINCVLRDSNCALSSTLWYRTKSGSRNEESISKGGRYVETVNSGSKSFSLRINDLTVEDSGTYRCNVCSNYCPIKDDVYGDGTAVTVNA
notes: VNAR on phage
B8: Clone 8.149 (VNAR)
VNAR: ARVDQTPQTITKETGESLTINCVLRDSNCALPSTYWYRKKSGSTNEESISKGGRYVETVNSGSKSFSLRINDLTVEDSGTYRCKVIAQLSSILRGCNYHPHDVYGDGTAVTVNA
B9: Clone 8.154 (VNAR)
VNAR: ARVDQTPQTITKETGESLTINCVLRDSNCALPSTYWYRKKSGSTNEESISKGGRYVETVNSGSKSFSLRINDLTVEDSGTYRCKVIAQLSSILRGCGGSKHDVYGDGTAVTVNA
B10: Clone 8.155 (VNAR)
VNAR: ARVDQTPQTITKETGESLTINCVLRDSNCALPSTYWYRKKSGSTNEESISKGGRYVETVNSGSKSFSLRINDLTVEDSGTYRCKVIAQLSSILRGCNYKIADVYGDGTAVTVNA
B11: Clone 8.152 (VNAR)
VNAR: ARVDQTPQTITKETGESLTINCVLRDSNCALPSTYWYRKKSGSTNEESISKGGRYVETVNSGSKSFSLRINDLTVEDSGTYRCKVMDQLSNMLRGCNYRKHDVYGDGTAVTVNA
B12: Clone 8.156 (VNAR)
VNAR: ARVDQTPQTITKETGESLTINCVLRDSNCALPSTYWYRKKSGSTNEESISKGGRYVETVNSGSKSFSLRINDLTVEDSGTYRCKVIAQLSSQSVGCNYRKHDVYGDGTAVTVNA
B13: Clone 8.151 (VNAR)
VNAR: ARVDQTPQTITKETGESLTINCVLRDSNCALPSTYWYRKKSGSTNEESISKGGRYVETVNSGSKSFSLRINDLTVEDSGTYRCKVIAQLSSLERGCNYFQFDVYGDGTAVTVNA
B14: Clone 8.160 (VNAR)
VNAR: ARVDQTPQTITKETGESLTINCVLRDSNCALPSTYWYRKKSGSTNEESISKGGRYVETVNSGSKSFSLRINDLTVEDSGTYRCKVIAQLSSILRGCFPQKHDVYGDGTAVTVNA
B15: Clone 8.153 (VNAR)
VNAR: ARVDQTPQTITKETGESLTINCVLRDSNCALPSTYWYRKKSGSTNEESISKGGRYVETVNSGSKSFSLRINDLTVEDSGTYRCKVIAQLAFGLRGCNYRKHDVYGDGTAVTVNA
B16: Clone 8.150 (VNAR)
VNAR: ARVDQTPQTITKETGESLTINCVLRDSNCALPSTYWYRKKSGSTNEESISKGGRYVETVNSGSKSFSLRINDLTVEDSGTYRCKVIAQLSSILRGCNYNQQDVYGDGTAVTVNA
B17: Clone 8.157 (VNAR)
VNAR: ARVDQTPQTITKETGESLTINCVLRDSNCALPSTYWYRKKSGSTNEESISKGGRYVETVNSGSKSFSLRINDLTVEDSGTYRCKVIAYRKSIVRGCNYRKHDVYGDGTAVTVNA
B18: Clone 8.161 (VNAR)
VNAR: ARVDQTPQTITKETGESLTINCVLRDSNCALPSTYWYRKKSGSTNEESISKGGRYVETVNSGSKSFSLRINDLTVEDSGTYRCKVIAQLSSILRGCIAGKHDVYGDGTAVTVNA
B19: Clone 8.159 (VNAR)
VNAR: ARVDQTPQTITKETGESLTINCVLRDSNCALPSTYWYRKKSGSTNEESISKGGRYVETVNSGSKSFSLRINDLTVEDSGTYRCKVIAQLSSDGQGCNYRKHDVYGDGTAVTVNA
B20: Clone 8.162 (VNAR)
VNAR: ARVDQTPQTITKETGESLTINCVLRDSNCALPSTYWYRKKSGSTNEESISKGGRYVETVNSGSKSFSLRINDLTVEDSGTYRCKVIAQLSSNRNGCNYRKHDVYGDGTAVTVNA
B21: Clone 8.158 (VNAR)
VNAR: ARVDQTPQTITKETGESLTINCVLRDSNCALPSTYWYRKKSGSTNEESISKGGRYVETVNSGSKSFSLRINDLTVEDSGTYRCKVIAQLNVILRGCNYRKHDVYGDGTAVTVNA

Legend:
[1] = target: T1, recombinant mouse TfR-1 (mouse, UniProt Q62351 89-763); assay: phage ELISA
T1 construct: Bought recombinant protein; also called mTfR1
Protocol: (§1) After the third round of selection, instead of pooling bacterial colonies, individual phagemid clones were grown in 1 ml of 2TY medium containing glucose and ampicillin in 96-well blocks and used to rescue the phages. After an overnight culturing, bacteria were spun down and an aliquot of the phage supernatant was sent for Sanger sequencing (Genewiz); VNAR CDR3 sequences were identified using BioEdit (a sequence alignment editor). Another aliquot was blocked with 2.5% milk for phage ELISAs. High-binding ELISA plates (Greiner) were coated with 1 μg/ml of recombinant human or mouse TfR-1. The plates were then blocked with 2.5% milk in PBST. Blocked phages were added to the blocked plates and the VNAR-phage clones binding to the antigens were detected with HRP-labelled anti-M13 coat protein antibodies (Sino Biological), and chromogenic TMB substrate (KLM)
T1 sequence (Q62351 89-763 limits assumed): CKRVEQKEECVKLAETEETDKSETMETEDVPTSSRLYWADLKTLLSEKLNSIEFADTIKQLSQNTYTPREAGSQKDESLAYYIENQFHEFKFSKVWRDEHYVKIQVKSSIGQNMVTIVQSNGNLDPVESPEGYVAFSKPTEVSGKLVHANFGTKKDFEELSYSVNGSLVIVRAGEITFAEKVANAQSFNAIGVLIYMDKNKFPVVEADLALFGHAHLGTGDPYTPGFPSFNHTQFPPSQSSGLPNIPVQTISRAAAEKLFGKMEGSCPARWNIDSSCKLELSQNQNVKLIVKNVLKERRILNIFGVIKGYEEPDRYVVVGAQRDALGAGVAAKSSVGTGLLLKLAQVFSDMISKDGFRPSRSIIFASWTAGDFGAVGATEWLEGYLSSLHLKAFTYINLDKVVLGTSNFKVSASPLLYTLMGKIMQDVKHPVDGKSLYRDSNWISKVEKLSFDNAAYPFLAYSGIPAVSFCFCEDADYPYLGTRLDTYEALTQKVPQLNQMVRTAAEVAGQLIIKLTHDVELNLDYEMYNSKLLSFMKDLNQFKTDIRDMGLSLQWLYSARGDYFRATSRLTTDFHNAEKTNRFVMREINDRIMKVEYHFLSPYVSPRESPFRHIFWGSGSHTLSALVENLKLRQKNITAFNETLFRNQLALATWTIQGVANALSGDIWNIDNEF

[2] = target: T2, recombinant human TfR-1 (human, UniProt P02786 89-760); assay: phage ELISA
T2 construct: extracellular domain; also called hTfR1; human transferrin receptor-1
Protocol: as §1
T2 sequence (P02786 89-760): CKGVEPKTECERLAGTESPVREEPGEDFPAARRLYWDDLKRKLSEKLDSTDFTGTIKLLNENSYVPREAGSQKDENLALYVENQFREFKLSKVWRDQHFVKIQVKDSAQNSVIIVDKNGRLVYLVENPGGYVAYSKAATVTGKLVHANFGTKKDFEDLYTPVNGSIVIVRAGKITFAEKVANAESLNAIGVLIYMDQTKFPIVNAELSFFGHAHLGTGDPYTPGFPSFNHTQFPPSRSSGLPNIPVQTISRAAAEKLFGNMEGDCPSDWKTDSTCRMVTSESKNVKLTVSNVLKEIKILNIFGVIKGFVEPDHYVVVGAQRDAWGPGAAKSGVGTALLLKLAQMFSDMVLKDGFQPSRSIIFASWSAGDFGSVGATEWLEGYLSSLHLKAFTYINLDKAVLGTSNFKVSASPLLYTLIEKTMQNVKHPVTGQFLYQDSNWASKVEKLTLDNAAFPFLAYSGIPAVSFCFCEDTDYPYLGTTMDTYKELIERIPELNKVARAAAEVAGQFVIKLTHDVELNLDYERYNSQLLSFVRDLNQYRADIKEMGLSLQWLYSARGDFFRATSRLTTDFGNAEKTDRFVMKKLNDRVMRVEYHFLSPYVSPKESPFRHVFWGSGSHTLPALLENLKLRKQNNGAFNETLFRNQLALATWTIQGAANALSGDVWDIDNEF

[3] = target: T3, recombinant mouse TfR-1 (mouse, UniProt Q62351 89-763); assay: phage ELISA, VNAR-phage on plate-coated recombinant mouse TfR-1
T3 construct: Coated at 1 ug/ml for the phage ELISA; also called mTfR1; mouse transferrin receptor-1
T3 sequence (Q62351 89-763 limits assumed): as the sequence (Q62351 89-763 limits assumed) above

[4] = target: T4, recombinant human TfR-1 (human, UniProt P02786 89-760); assay: phage ELISA, VNAR-phage on plate-coated recombinant human TfR-1
T4 construct: also called hTfR1; human transferrin receptor-1
T4 sequence (P02786 89-760 limits assumed): as the sequence (P02786 89-760) above

Binder	binding result [1]	binding result [2]	phage ELISA A450 [3]	phage ELISA A450 [4]
B1	binds	binds		
B2	binds	binds		
B3	binds	binds		
B4	binds	binds		
B5	binds	binds		
B6	binds	binds		
B7	binds	binds		
B8			0.045 A450	0.052 A450
B9			0.044 A450	0.055 A450
B10			0.044 A450	0.053 A450
B11			0.045 A450	0.059 A450
B12			0.044 A450	0.062 A450
B13			0.045 A450	0.048 A450
B14			0.043 A450	0.049 A450
B15			0.044 A450	0.048 A450
B16			0.045 A450	0.058 A450
B17			0.044 A450	0.048 A450
B18			0.043 A450	0.048 A450
B19			0.043 A450	0.057 A450
B20			0.042 A450	0.055 A450
B21			0.043 A450	0.046 A450
